This data set is described as follows: label from the status in PepcDB records.

For “MFGGIENVKAAEPKVYQFDFGSGSMEPGYIGVRASDRYDRSKGYGFQTPENMRDVAASGAGVKSDAVEFLAYGTKSNNTFNVDLPNGLYEVKVTLGNTARASVAAEGVFQVINMTGDGAEDTFQIPVTDGQLNLLVTEGKAGTAFTLSALKIKKLSDQPVTNRTIYVGGDSTVCNYYPLNSSKQAGWGQMLPHYIDKHTFQVRNMASGGQIARGFRNDGQLEAILKYIKPGDYFMLQLGINDTNPKHKESEAEFKEVMRDMIRQVKAKGADVILSTPQGRATDFTSEGIHSSVNRWYRASILALAEEEKTYLIDLNVLSSAYFTSIGPERTLGLYMDGDTLHPNRAGADALARLAVQELKRQGIAGFLEHHHHHH”, the protein production result is “not failed”.

“MFHKALITFIVLWFFLNGLGAYDFKHCQAFFKKASLQKGGVALKELPKGVYLYYSKTYPKHAKVIKSDPFVGLYLLQSAPSEYVYTLRDLDKDALIRPMASIGDKEALETRLLVGQRGYERYAQISQKTQKNGVISNICYQMLGLGVGGNGFIETKFIKRFLNQQEPYYGDIGVRLEEHHKRLVVVQFDPFFPKNPFLKNDEILAINHQKIHSLAEFEWVVSNLKYQSLAKVEIKRNHKVKEVTLKVNKRYGGFLLKDTFLERYGIALDERFIITKIGAHLPKGLDFLKLGDRILWVNYKSVASNPKALREALSAPKIELLVLRKGFEFYIKVR”: the protein production result is listed as “failed”.

“MFHYTVDVSTGMNETIERLEESLKQEGFGVLWQFSVTEKLQEKGLDFSTPMVILEVCNPQEAARVLNENLLVGYFLPCKLVVYQENGTTKIGMPKPTMLVGMMNDPALKEIAADIEKRLAACLDRCR”: the protein production entry is “not failed”.

Turning to “MFIGRNQELTALNKLYQEDSFQFAVIYGRRRIGKTSLINQFLKGKRAIYFTGLEENALENLARFSDAIHAYEDPSYLDGPNFASFEQAFKYLVHLSEKNDRLILVIDEFPYLAKAYPPISSMLQSYIDHYFKQNKLFLILCGSSMPFMEKQVLGYKSPLYGRRTAQFKLKPFSLHDAEEFFPQLNKEEVFELNAITGGIPLYLSLMSPKKSLRENIKDNFLTTSAMLYAEPMSLLNQELREPASYSSIISAIAAGASRQSEISTKTGIASGALSPYLDNLIDLGIVEKRLPVTELDKARSRKTIYAIKDGMFRFWYTFVGKRVSFIERGITEPILDYIIKQLPHFMGPEFEKLSQEYLWSKLFDPDLVPEPFVNLGNWWGPDPKEKKQVEMDIVGFDDQKLNGYFGECKWKNEPISADILETLIYRSILFPTPKKNYYLFSKTGFTDKCQQLAQQVDCHLITFDMM”, the protein production result is “failed”.

Consider “MFIHPHTSLTFEQCQKARVSRDSRFDGRFYVAVKTTGIFCRPICPANLPKEENVEYFTDKAQALKAGYRPCLRCRPDSAPGSWAWKGVETTFQRAISLIDRGELHHHSVSELAERVGISDRYLRMLFEQYLGMSPKQYAQYQQLMFAKQLLHSSSMSVTEVGFAAGFNSTRRFNDAFQKFLKLTPSQVRRREFDGVSTNRIALSYRGELNWQHMLDFYRLRAIEGVERVSGESYQRNVCLDNSKAWFKAIKGEGNLELEFEIEEVAKLQNLVSGIRRMFDLDTDICTVEQHLDYVAPGLVSNRGIRIPGVWNAWEAGVRAVLGQQVSVKAAIGQLNLLVKTLSGDADKRFFPTPDAIANADVSFLRMPQSRKETLVRFAQFMQSNAETDPQQWLALKGIGPWTVSYAQLRGQSQPDCFLDKDLVVKKAMQRYPSLNTHTAAPWGSYATFHLWNQS”, for which the protein production entry is listed as “failed”.

Take “MFIHVGSDKVLVKFIVSKFIKDYSNISNKKVRENYGILSSIMGLIVNLILFVIELSIGIFINSIAVIADAFHNLADVSASVITLIGFKLSNKPADKEHPFGHGRVEYLSALLVSAIILLVGVEFIKTSFLRILSPEPVSFNLISFIIMLIAIPLKLWLSLFNKNIGKKINSSALKASGADALNDVYILSSVILSLLVSAFSTISIDGYVGVLIGALIIWSAVNLMKDTIDPLLGQAPDPNLVKSIKKMALKCDVILGVHDLIIHNYGPGRTMISFHAEVPYNIPIMTLHSKIDETEKRISEELDIFVVIHMDPLLIGSPEVSEAKRYVSKILKDFPSVQSFHDFRIVGDGEDKKLIFDIVVPFDVDISEKKLSKLGDDIKSEIIRRHPHYDCVITVDRDYSGI”: the protein production entry is reported as “failed”.

Consider “MFIKGVILSSYGVNGYARVKSISNNFCDFINLKNNKVLLKKSNSSSVEVKVVDVNIKGNSLFLKFEEIDTPEAVRPLIGFELWVDDSLASSLKEGEYYLGKLIGYAIVNNNKKLGEVVAFFEYLNSVFLEVRVGIKFFFIPFLSIYIGDINTQEKTIELKVLDLLKLEHHHHHH”, for which the protein production result is reported as “failed”.

For the sequence “MFIKLMRNIFSELTSHIQNMKLYFKRSLLVFSLMSSFCVASERSAWEEVYAKSQHKQTETALKLLQDRYHSLPEGAEKLYLTSKLHGYFVLKGQPYYGELVNSHDTYALTEQRFLDALNHEESLDYHSAEETYLTFYAEMKQKNDQDGMVLFEYHLCRLFQRHGRPYQARFYCSQMDQRLLNAEDPLFPRYRGLHLVANNLEFLGEYEEALQTYDLLLSLLPDYVDPSGIYNDVGLLMGTLGQYESALDYLNKALEYRLEQGNPLLIAQVEHSLGDTYFKQGRYEESILYFEQAKAHLTPANYLFGLAYVHLGLGKAYIELNNFVEGDQHLFQALEYVNQHKDQHLQGLIYLSLAQAHFKEQKYAQAIDYANQAVAISESASLPRIKAQAYLQLAKIAEAEQQYQEALSWYRQYAESELLLRNTEQRKAFEALDLAKAELEQKRGVNFWRENYQALAEKYEMLKWQRVSLSLLVIVFALILPIAHYRRRKECDQNQQDSLHGVLSRTSGLERLTHIEACQQTEHVHLLALLDIDQLRQFNERHGYERGDIALQNTINTLLHQLRAKEFVCRLGDDEFLVVMPNCRRTLSETRLFVLHHALNGKTPTDAKSTVGLSVTLSYLAVESGLASFTHFYPKLDSALSIAKQSGNGGLIDAADPTNALLTACS”, the protein production result is listed as “failed”.

For “MFISVLDLFKIGIGPSSSHTMGPMTAANVFRDHVDQLVSQTPDDLNYRVYCVLKGSLAFTGRGHATDRAVALGLHGHSPVSLAGEDVNALTAKLWATDTLQLTSGREIGFNPEDDIVFDKSDPLPQHPNGMIFYLLDEEGKKILSETFFSIGGGFICTLAEINQ”, the protein production entry is “not failed”.

For the sequence “MFIYFPKNYVWSMSTVIAATHGGSIGEIDEFCRPLLDKSSDDADVGTVEFLHAWIGGADKLIKMAEQDLEKNRELSAAKKYYRAALYYLIAERMQEQGHPERLKVYKRYLELAELYRKYKKDDVKRVEIPYQNSHLSAIYAKGKTTDEKQAIVVMMNGLDSTKELMSYCPLADELVERGISVLMVDQPGTGEAIRLQDLRAVYNSEIWASPIVDWLCEQPEIDQHRIAAFGISLGGYYCPRAVAFEPRFCCAAIWGANHDWRAVQHARLKREGENPVPHYWKHVEWVFGAQDQKEFFEIAENMHLNGVLDRIKVPFLVTHGEKDRQIPLKYAYETYDQLINSPDKELLVIDDEMGGVEHSSIDNPLNAGAYIADWLAEHLNGKTSK”, the protein production entry is given as “failed”.

“MFKDKKMLKYIVIYSIIAFGILLTFNMVKDEMLYEKVDYSTFMQMLDKKEVKSVNFSGNQIEITPSDSSNLKGKILYTTNPAVAGITQPDLIKDLTAAGVGFNVTKPENYQLLGLLMSWVFPLILIFFVGRMMFSKMNNKMGGGVMSFGKNNAKLYAENETGITFKDVAGQDEAKESLVEIVDFLHDTRKYVEIGAKLPKGALLVGPPGTGKTLLAKAVAGEAKVPFFSMSGSDFVEMFVGMGAARVRDLFKQAEEKAPCIVFIDEIDAIGKSRDGAIQGNDEREQTLNQLLTEMDGFDSSKGVVILAATNRPEVLDKALLRPGRFDRRIIVDRPDLIGREEILKVHSRDVKLSDDVSLEEIAKSTPGAVGADLANIVNEAALRAVKHGRKFVIQEDLDEAVEVIIAGQEKRDRILSPKEKKIVAYHEVGHALVAALLNNTDPVHKITIVPRTMGALGYTMQLPEEEKYLVSKEEMIDQISVMLGGRAAEEVVFNSITTGASNDIERATQSARNMITIYGMSERFDMMALEAMSNRYLDGRPVRNCSETTAAIADEEVLQVIKKAHEKSIKILIENRELLDEITGVLLDKETIMGDEFMEIVYSKYPEKREADEKAKKEIQSLREQALAKRKEKEEAIKKAREEALRLEEEQRKQAELKAMIEAQEEAAKLARANNEANNDDLDSSKENEEVKSNVNDRATEEKKDDSSTNNKVDGE”: the protein production result is “failed”.

“MFKKKGCFMNQLEQKLEQDFGIVFSQKDLLETAFTHTSYANEHRLLNISHNERLEFLGDAALQLVISVYLYNRYPNKPEGEMSKMRSTIVREESLAGFTKACGFEQYIRLGKGEEKSGGRERATILGDLWEAFLGALYLDQGLPAVEKFLNQVMIPQVEKGNFDRVIDYKTALQERLQVNGKVDITYTVIDESGPAHAKEFTMQVAVDGKELSTGLGKSKKLAEQAAAKSALEQLGN”: the protein production result was “failed”.

Consider “MFKKWLTWPVFYELTEIYTAPLNIMWFVLGSAIAQYHLGTVNWLNVTLCLVSVFIFDLAVNVSDNYYDYRHARDREGYAQKTNPIGRLQLPVAGVGRLALGLYLISLIPGIWLVMRTGWLVLVLGLVGYVIGIFYTAGPYPINATPLCETVVALAIAFLIELTCVVVSTYGQHPLTWSIVGTTFLLCLPLTLIFFCLQLANNTADRDEDILNHRYTLAYYLGKPGSVRLIQAFLVIGGIWPLVNVLLGLAPVVTIWVVLLLPIMWQGMRPFFEVQDKKKTFITTVKSASLFFILYPVLFVLGTWL”, for which the protein production result is listed as “failed”.

For “MFKNNSYKVGVLALALSMALTGCVSDGDDGEQGLKGEQGAPGVVGVDGNDGKSLPRDLNVEVVGRFATGIYGKSAAEIVQFHKSSNAAFAINGASNQIEVISLTNLSTTAVGNPVADESLTSNAFIFPLNVSVTNSAGVEKDMSLGAVNSIAIKKDLLAIAVEGEIKQAHGAILFYSLNELGEGTFIKAVEVGALPDMVTFTPDGSKALVANEGEPNTDYTNDPEGSISVISVVDLMPANVAKTINLSTDIVFSDDNLVPEDFDTDAKRLAILSKAGVKFAGPAGNTVAKDLEPEYITTSSNSKMAYVSLQENNAIGIINLEELTIEVKALGYKDWGKYQLDFSNKDEVPEFKSIQGLYGMYQPDTLASYTWNDTTFIVSANEGDARDYDGFSEEVRVKDIIDTDELNQTLSSELQSQYDVSGGKNYLGRLKVTTALGDEDQNGEFEKLFAYGARSFSIWDKNANLVFDSGDDFGKISAAIMGDNFNAAHTKNKGDNRSDDKGGEPEAIDVGEIAGRTYAFIAQERAGDLFVYDITNPFKTAFVTHYNNRDFTVDYEMDDDLADPCDSSEGMDCTKVNSAGDLGPESIKFVSAIDSPTSKPLLIIGNEVSGTVTVYQITEQ”, the protein production entry is “failed”.

With “MFKRFVLSLAFLIMAAVVSFQVIFTVPEHPQIITQTGSEITEDIRCIEFSGAKALDDNGELNLLVWNIYKQNRANWQSELELFSADKQLLLLQEASMTDSFKQWLVDGSWVSNQVSAFKALGSGAGVISIAQKQPIKACAYTSKEPWLRLPKSALYSQYRLSNGESLAVINVHAINFTVGTEEYTSQLSALETLLKQHSGPIVFAGDFNSWSEYRITAMKQALREANLREVQFSPDHRTQFITGLPLDHVFYRGLTLKNAKAPQSDASDHNPLLVSFTLND”, the protein production result was “failed”.

Consider “MFKSNYKGYGSGIISAMAWGLDTVLVGVILSMAPFINTESAIMLAPFVSTFLHDFFSTLWMFIYMIFTRQVGKLFKSLKTPSTKYVILASIFGGPMGMTGYLLSVNYIGPSYAATISSIYPAVGAVLAAIFLKEKISRKGYIGLTISILGIALLGFGNDGGKASLIGFLFAGLSVLGWGSESVICSYGMKDEDISPKQALQIRQFISALFSGVIILPLLKAYPLVFEVLKGNVTFVIIGTALMGTISYVCYYTAIHKLGPTRAMGLNITYVVWAMIFDKVLLGHNITIKMVICALMVMIGSFVVATQPAHEEELTNVTNTAV”, for which the protein production entry is listed as “failed”.

As for “MFKSPENDSLVSAVFDSSPIGIQIIDLETGMREKINQTACVLLGDTKDNLMAKSVFEDCTWLGKDKFLFVIERLKENKTLKNHIVQFENHQGNELTISYDISEFKYRSKRLVTVSMNDVT”, the protein production result is “failed”.

As to “MFKTILLAYDGSEHARRAAEVAKAEAEAHGARLIVVHAYEPVPDYLGEPFFEEALRRRLERAEGVLEEARALTGVPKEDALLLEGVPAEAILQAARAEKADLIVMGTRGLGALGSLFLGSQSQRVVAEAPCPVLLVR”, the protein production entry is recorded as “not failed”.
